Source: patent US20200369771A1 (JOINT STOCK COMPANY BIOCAD, published 2020)
Where a chain is given by its changes, count along the chain named.

Key:
[1] = molecular target: T1, human PD-L1 (recombinant, in solution) (human, UniProt Q9NZQ7 19-238, limits assumed); assay: BLI OctetRed 96, BCD-135 on AR2G sensors, PD-L1 in solution at 10 to 1 ug/ml, 30 C, 1:1 model; human PD-L1
T1 construct: also called human PD-L1 antigen
Method: (§1) Constants of the antibody binding affinity to human and cynomolgus PD-L1 were measured with an OctetRed 96 instrument (from ForteBio). […] The assay was carried out at 30 ° C. using PBS containing 0.1% Tween-20 and 0.1% BSA as a reaction buffer. The binding of human and monkey PD-L1 solutions to a sensor-bound antibody was analysed in a work buffer with an antigen concentration of 10 μg/ml to 1 μg/ml.
(§2) The binding curves minus the reference signal were analyzed using Octet Data Analysis (ver 8.2) software according to the standard procedure using the 1:1 interaction model.

IL17a = molecular target: T2, IL17a (Homo sapiens (Human), UniProt Q16552 24-155); assay: ELISA, antigen coated at 1 µg/ml, BCD-135 titrated 5 to 0.0007 µg/ml, OD 450 nm
T2 construct: Off-target antigen in the specificity ELISA
Method: (§3) ELISA was used to measure the relative affinity of anti-PD-L1 antibodies and other antigens. For binding assay, ELISA plate wells (medium binding from Greiner bio one) were coated with 50 μl of PD-L1-Fc, fPCSK9-EPEA, Ang2-H6F, GM-CSF-FE, CD3-ED-Fc, IL17a, CD38-Fc, IL6R-Fc (1 μg/ml in lx carbonate buffer), hermetically sealed and incubated overnight at 4° C. All the subsequent stages were conducted following standard ELISA protocol. To block a non-specific binding, a buffer BB (200 μL of 0.5% skimmed milk in PBS) was added. The plates were incubated on a shaker for an hour at room temperature. […] The plates were again incubated, shaking for one hour at room temperature, followed by washing for three times each plate well with PBS-Twin buffer. Once washed, (50 μL/well) anti-human Fab HRP-conjugated secondary antibodies (from Pierce-ThermoScientific) were added at 1:5000 ratio in PBS-Tween. The plates were shaken on a rotary shaker (50 min, room temperature) and washed for three times with FSB-Twin buffer, as described above. The colourimetric signal was developed by adding TMB (50 μL/well) until saturation (average 3-5 min), then the development was quenched by adding stop solution (30 μL/well, 10% sulphuric acid). Colour signal was measured at a wavelength of 450 nm using a suitable Tecan-Sunrise plate reader (from Tecan).

[2] = molecular target: T3, cynomolgus monkey PD-L1 (in solution) (cynomolgus monkey, UniProt G7PSE7 19-238); assay: BLI OctetRed 96, BCD-135 on AR2G sensors, PD-L1 in solution at 10 to 1 ug/ml, 30 C, 1:1 model; cynomolgus PD-L1
T3 construct: also called cynomolgus PD-L1 antigen
Method: as §1, §2

human PD-L1-Fc [3] = molecular target: T4, human PD-L1-Fc (human, UniProt Q9NZQ7 19-238, limits assumed); assay: ELISA, antigen coated at 1 µg/ml, BCD-135 titrated 5 to 0.0007 µg/ml, anti-human Fab HRP, OD 450 nm
T4 construct: not shown: Fc part
Method: as §3

rabbit PD-L1-Fc = molecular target: T5, rabbit PD-L1-Fc (rabbit, UniProt G1SUI3 19-236); assay: ELISA, PD-L1-Fc coated at 0.5 ug/ml
T5 construct: also called rabbity PD-L1-Fc; not shown: Fc part
T5 sequence: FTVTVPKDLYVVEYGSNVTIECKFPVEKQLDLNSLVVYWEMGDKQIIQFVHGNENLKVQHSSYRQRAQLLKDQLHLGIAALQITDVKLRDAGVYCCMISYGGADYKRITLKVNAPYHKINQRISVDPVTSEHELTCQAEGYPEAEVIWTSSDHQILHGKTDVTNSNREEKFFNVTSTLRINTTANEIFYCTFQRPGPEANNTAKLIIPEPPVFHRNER
Method: (§4) ELISA was used to measure the relative affinity of anti-PD-L1 antibodies from different organisms. For the binding assay, ELISA plate wells (medium binding from Greiner bio one) were coated with 50 μl of human, cynomolgus, murine, rat, canine, rabbity PD-L1-Fc, (0.5 μg/ml in 1× carbonate buffer), hermetically sealed and incubated overnight at 4° C. All the subsequent stages were conducted following standard ELISA protocol described above.

FcgRIa = molecular target: T6, FcgRIa (Homo sapiens (Human), UniProt P12314 16-292, C-terminal biotin; the letters of any biotinylation or purification tag are not given); assay: Biolayer interferometry (Octet RED96), biotinylated receptor on streptavidin sensors, antibody in solution, phosphate buffer pH 7.4
T6 construct: Biotinylated receptor held on streptavidin sensors; also called Fcg receptor; Fcγ-receptor

rat PD-L1-Fc = rat PD-L1-Fc (rat, UniProt D4AE25 19-239); assay: ELISA, PD-L1-Fc coated at 0.5 µg/ml, antibody titrated 5 to 0.0007 µg/ml, OD 450 nm
Method: as §4

cynomolgus PD-L1-Fc = molecular target: T7, cynomolgus PD-L1-Fc (cynomolgus, UniProt G7PSE7 19-238); assay: as above
T7 construct: not shown: Fc part
Method: as §4

canine PD-L1-Fc = molecular target: T8, canine PD-L1-Fc (canine, UniProt E2RKZ5 19-236); assay: as above
T8 sequence: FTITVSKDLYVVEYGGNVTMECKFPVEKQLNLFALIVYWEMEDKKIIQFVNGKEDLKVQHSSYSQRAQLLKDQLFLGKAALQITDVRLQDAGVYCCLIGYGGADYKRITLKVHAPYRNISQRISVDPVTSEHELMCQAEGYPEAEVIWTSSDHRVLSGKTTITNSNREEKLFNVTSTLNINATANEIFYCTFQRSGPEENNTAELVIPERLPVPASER
Method: as §4

human PD-L1-Fc [4] = molecular target: T4, human PD-L1-Fc; assay: as above
Method: as §4

murine PD-L1-Fc = molecular target: T9, murine PD-L1-Fc (murine, UniProt Q9EP73 19-239, limits assumed); assay: as above
T9 construct: not shown: Fc part
Method: as §4

[5] = molecular target: T1, human PD-L1 (recombinant, in solution); assay: BLI Octet Red 96, Fab from E. coli supernatant on anti-FABCH1 sensors, PD-L1 at 30 ug/mL, 1:1 model
Method: Anti-FABCH1-biosensors (SA) were rehydrated for 30 minutes in the reaction buffer containing 10 mM PBS, pH 7.2-7.4, 0.1% Tween-20, 0.1% BSA. The reaction buffer was added into study E. coli supernatant samples to a final concentration of 1×. Then, anti-FABCH1-biosensors were submerged in E. coli supernatants containing Fab fragments of candidate antibodies for 12 hours at 4 ° C. Sensors with surface immobilized Fab fragments were transferred into wells with reaction buffer wherein baseline was recorded (for 60 seconds). Next, sensors were transferred to wells with analyte solution (PD-L1, 30 μg/mL) to associate antigen-antibody complex (300 s). Then, sensors were returned to the wells containing the reaction buffer for the next dissociation step (600 s). After each experiment, used sensors were regenerated by 3-time placing them into the regeneration buffer (Gly-HCl, pH 1.7), thereafter they were used in the next experiment. Obtained curve analysis was carried out using Octet Data Analysis (ver 7.0) software according to the standard procedure using 1:1 interaction model.

T1 sequence (Q9NZQ7 other isoform, or with tags, fused parts or gaps limits assumed): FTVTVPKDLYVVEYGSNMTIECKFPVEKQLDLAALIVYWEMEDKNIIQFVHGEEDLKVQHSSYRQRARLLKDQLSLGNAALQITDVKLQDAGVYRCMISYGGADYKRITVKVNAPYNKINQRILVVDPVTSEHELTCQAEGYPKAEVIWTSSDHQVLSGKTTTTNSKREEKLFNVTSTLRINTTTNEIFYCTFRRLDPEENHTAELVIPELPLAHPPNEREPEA
T4 sequence (Q9NZQ7 19-238 limits assumed): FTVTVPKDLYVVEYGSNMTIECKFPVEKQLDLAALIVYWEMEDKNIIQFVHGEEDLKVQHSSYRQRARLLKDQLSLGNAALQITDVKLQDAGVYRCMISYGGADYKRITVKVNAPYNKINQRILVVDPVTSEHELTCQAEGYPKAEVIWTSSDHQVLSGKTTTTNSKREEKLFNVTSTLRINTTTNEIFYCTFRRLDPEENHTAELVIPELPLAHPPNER
T2 sequence (Q16552 24-155 limits assumed): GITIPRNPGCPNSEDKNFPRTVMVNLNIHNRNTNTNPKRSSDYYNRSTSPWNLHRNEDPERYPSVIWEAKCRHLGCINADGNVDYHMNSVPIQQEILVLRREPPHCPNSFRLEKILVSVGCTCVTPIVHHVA
T3 sequence (G7PSE7 entry or part of it): as the sequence (Q9NZQ7 19-238 limits assumed) above, with A33T, A34S, S62N, R68Q, Q82R, F173L, T185A, T192I, H215L counted along it
T7 sequence (G7PSE7 entry or part of it): as the sequence (Q9NZQ7 19-238 limits assumed) above, with A33T, A34S, S62N, R68Q, Q82R, F173L, T185A, T192I, H215L counted along it
T6 sequence (P12314 16-292 limits assumed): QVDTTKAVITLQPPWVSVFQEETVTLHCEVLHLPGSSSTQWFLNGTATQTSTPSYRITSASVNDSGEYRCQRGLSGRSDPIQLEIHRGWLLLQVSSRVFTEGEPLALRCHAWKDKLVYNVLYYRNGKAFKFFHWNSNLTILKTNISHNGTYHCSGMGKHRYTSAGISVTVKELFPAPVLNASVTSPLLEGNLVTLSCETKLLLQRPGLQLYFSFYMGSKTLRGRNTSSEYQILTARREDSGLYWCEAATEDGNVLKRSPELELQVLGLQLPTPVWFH
T9 sequence (Q9EP73 19-239 limits assumed): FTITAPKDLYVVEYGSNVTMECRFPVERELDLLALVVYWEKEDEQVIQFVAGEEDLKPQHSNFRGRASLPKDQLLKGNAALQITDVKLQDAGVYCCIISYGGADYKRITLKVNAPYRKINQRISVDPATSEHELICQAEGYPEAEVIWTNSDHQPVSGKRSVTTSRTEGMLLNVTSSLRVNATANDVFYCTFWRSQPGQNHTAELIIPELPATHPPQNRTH
Chain of rat PD-L1-Fc (D4AE25 entry or part of it limits assumed): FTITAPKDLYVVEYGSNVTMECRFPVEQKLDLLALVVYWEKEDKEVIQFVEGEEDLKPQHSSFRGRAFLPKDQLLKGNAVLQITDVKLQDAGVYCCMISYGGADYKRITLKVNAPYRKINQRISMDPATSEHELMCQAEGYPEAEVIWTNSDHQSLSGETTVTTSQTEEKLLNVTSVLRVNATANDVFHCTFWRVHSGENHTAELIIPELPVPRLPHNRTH

B1: BCD-135 antibody (antibody, human IgG1, lambda, L234A L235A)
heavy: not shown
light: QTVVTQEPSLSVSPGGTVTLTCGLSSGTVTAINYPGWYQQTPGQAPRTLIYNTNTRHSGVPDRFSGSISGNKAALTITGAQAEDEADYYCALYMGNGGHMFGGGTKLTVLGQPKAAPSVTLFPPSSEELQANKATLVCLISDFYPGAVTVAWKADSSPVKAGVETTTPSKQSNNKYAASSYLSLTPEQWKSHRSYSCQVTHEGSTVEKTVAPTECS
notes: also called anti-PD-L1 antibody; modified IgG1 antibody
For B1, the Kd [1] was < 0.001 nM, the binding result (IL17a) was “no binding (tested: 5 µg/ml)” and the Kd [2] was 0.555 nM. For the same binder, the “EC50 (read off the curve)” value (human PD-L1-Fc [3]) was ~6 ng/mL, the binding result (rabbit PD-L1-Fc) was “no binding” and the binding result (FcgRIa) was “no binding”. For the same binder, the binding result (rat PD-L1-Fc) was “no binding (tested: 5 µg/ml)”, the “EC50 (read off the curve)” value (cynomolgus PD-L1-Fc) was ~5 ng/mL and the binding result (canine PD-L1-Fc) was “no binding (tested: 5 µg/ml)”. For the same binder, the “EC50 (read off the curve)” value (human PD-L1-Fc [4]) was ~6 ng/mL and the binding result (murine PD-L1-Fc) was “no binding (tested: 5 µg/ml)”.

B2: wild type BCD-135 Fab antibody (Fab, V domains shown)
VH: EVQLVESGGGVVRPGGSLRLSCAASGFTFDDYAMSWVRQAPGKGLEWVSDISWSGSNTNYADSVKGRFTISRDNAKNSLYLQMNSLRAEDTALYHCARAPLLLAMTFGVGSWGQGTLVTVSS
VL: QTVVTQEPSLSVSPGGTVTLTCGLSSGTVTAINYPGWYQQTPGQAPRTLIYNTNTRHSGVPDRFSGSISGNKAALTITGAQAEDEADYYCALYMGNGGHMFGGGTK
notes: Fab made in E. coli and used as supernatant; also called Wild-BCD-135VH; control wild BCD-135 Fab
Work on B2 yielded a Response [5] of 0.0903.

B3: 4m-BCD-135VH (Fab, V domains shown)
VH: B2 VH with D30A, D31N, R98K, L102P, M105T
VL: B2 VL with M94V, N96T, G98S
notes: Substitutions derived from the printed CDR strings; Fab from E. coli supernatant; also called BCD-135 mutant Fab antibody 4m
B3 showed a Response [5] of 0.0637.

B4: 6m-BCD-135VH (Fab, V domains shown)
VH: B2 VH with D30S, D31T, R98K, L102V, M105I
VL: B2 VL with M94T, N96T, G98S
notes: Substitutions derived from the printed CDR strings; Fab from E. coli supernatant; also called BCD-135 mutant Fab antibody 6m
B4 gave a Response [5] of 0.0945.

B5: 2m-BCD-135VH (Fab, V domains shown)
VH: B2 VH with D30N, R98K, L102P, M105T
VL: B2 VL with M94T, N96T, G98S
notes: Substitutions derived from the printed CDR strings; Fab from E. coli supernatant; also called BCD-135 mutant Fab antibody 2m
B5 gave a Response [5] of 0.0505.

B6: 5m-BCD-135VH (Fab, V domains shown)
VH: B2 VH with D30K, D31S, M34I, R98K, L102M, M105A
VL: B2 VL with M94Y, N96T, G98S
notes: Substitutions derived from the printed CDR strings; Fab from E. coli supernatant; also called BCD-135 mutant Fab antibody 5m
B6 was tested, and the Response [5] was 0.0623.

B7: 1m-BCD-135VH (Fab, V domains shown)
VH: B2 VH with D30A, D31N, R98K, M105T
VL: B2 VL with M94V, N96T, G98S
notes: Fab from E. coli supernatant; also called BCD-135 mutant Fab antibody 1m
Work on B7 yielded a Response [5] of 0.0971.

B8: 7m-BCD-135VH (Fab, V domains shown)
VH: B2 VH with D30A, R98K, L102P, L103S, M105I
VL: B2 VL with M94E, N96T, G98S
notes: Substitutions derived from the printed CDR strings; Fab from E. coli supernatant; also called BCD-135 mutant Fab antibody 7m
With B8 the Response [5] was 0.0637.
